Tests used:
[1] = target: PlexinC1 (Homo sapiens) (UniProt O60486); assay: Scatchard analysis; settings: cited from earlier work
[2] = target: PlexinC1-SemaPSI (Sema domain plus the first PSI domain) (human) (UniProt O60486); assay: ITC
[3] = target: Sema7A, extracellular segment, glycan-trimmed (for crystallization) (human) (UniProt O75326); assay: crystal structure
[4] = target: Sema7A, extracellular segment, glycan-trimmed (for crystallization) (human) (UniProt O75326); assay: SEC
[5] = target: the molecule itself; assay: SEC + cross-linking

Sema7A (from UniProt O75326)
Kd [1]: 2.1 nM

Sema7A, entire extracellular segment excluding the GPI anchor (from UniProt O75326 45-648) (ligand)
Kd [2]: 290 nM
dH [2]: -2 kcal/mol

Sema7A, extracellular segment, glycan-trimmed (for crystallization) (from UniProt O75326 45-648) (ligand)
stoichiometry N [3]: 2
stoichiometry N [4]: 2

B1: PlexinC1-ECD (entire extracellular segment) (receptor, human, UniProt O60486 35-944, looked up)
chain: ADEPVWRSEQAIGAIAASQEDGVFVASGSCLDQLDYSLEHSLSRLYRDQAGNCTEPVSLAPPARPRPGSSFSKLLLPYREGAAGLGGLLLTGWTFDRGACEVRPLGNLSRNSLRNGTEVVSCHPQGSTAGVVYRAGRNNRWYLAVAATYVLPEPETASRCNPAASDHDTAIALKDTEGRSLATQELGRLKLCEGAGSLHFVDAFLWNGSIYFPYYPYNYTSGAATGWPSMARIAQSTEVLFQGQASLDCGHGHPDGRRLLLSSSLVEALDVWAGVFSAAAGEGQERRSPTTTALCLFRMSEIQARAKRVSWDFKTAESHCKEGDQPERVQPIASSTLIHSDLTSVYGTVVMNRTVLFLGTGDGQLLKVILGENLTSNCPEVIYEIKEETPVFYKLVPDPVKNIYIYLTAGKEVRRIRVANCNKHKSCSECLTATDPHCGWCHSLQRCTFQGDCVHSENLENWLDISSGAKKCPKIQIIRSSKEKTTVTMVGSFSPRHSKCMVKNVDSSRELCQNKSQPNRTCTCSIPTRATYKDVSVVNVMFSFGSWNLSDRFNFTNCSSLKECPACVETGCAWCKSARRCIHPFTACDPSDYERNQEQCPVAVEKTSGGGRPKENKGNRTNQALQVFYIKSIEPQKVSTLGKSNVIVTGANFTRASNITMILKGTSTCDKDVIQVSHVLNDTHMKFSLPSSRKEMKDVCIQFDGGNCSSVGSLSYIALPHCSLIFPATTWISGGQNITMMGRNFDVIDNLIISHELKGNINVSEYCVATYCGFLAPSLKSSKVRTNVTVKLRVQDTYLDCGTLQYREDPRFTGYRVESEVDTELEVKIQKENDNFNISKKDIEITLFHGENGQLNCSFENITRNQDLTTILCKIKGIKTASTIANSSKKVRVKLGNLELYVEQESVPST
binding result [5]: binds
